Molecular target: PARP15^CAT WT, isolated catalytic domain of human PARP15, batch with His-tag (human)
Test: native MS

- stoichiometry N: 2
Substance: PARP15^CAT WT, isolated catalytic domain of human PARP15, batch with His-tag (domain or fragment)
